Patent US20070202116A1, “Treatment of micro-organism infection” (priority 2001, published 2007)

Tests used:
EMRSA-15 [1] = assay: Data Set 1: murine sub-lethal infection, Aurograb alone; type: in vivo, S. aureus
Description: The murine model of staphylococcal infection is widely used and is routinely used in the assessment of antimicrobial drugs. It is a good predictor of efficacy in infected humans since S. aureus is introduced intravenously to create a bacteraemia, from which the pathogen spreads to other organs, including the kidney, liver and spleen.
Method: 20 female CD-1 mice were given a sub-lethal challenge (1.3×10^7 cfu) of a methicillin-resistant, vancomycin-sensitive strain of S. aureus (EMRSA-15, Typed Hospital Isolate, Central Manchester Healthcare Trust) in 100 μl iv bolus (all iv injections given via the lateral tail vein). 1 hour later, two groups of 10 mice, received, as 100 μl iv bolus: • 1. formulation buffer (Arginine-Urea), as negative control or • 2. Aurograb (2.0 mg/kg) in formulation buffer.
All animals were sacrificed after a further 48 h and viable cfu per gram of organ were determined.

EMRSA-15 [2] = assay: Data Set 2: Aurograb dose ranging study in infected mice; type: in vivo, S. aureus; settings: for Kidney log cfu per gram of tissue / Liver log cfu per gram of tissue / Spleen log cfu per gram of tissue: 48 hours; for Reduction in kidney bacterial counts: Experiment 1
Protocol: Aims: Dose ranging study for use of Aurograb versus S. aureus strain EMRSA-15.
Dose range is determined by comparing cfu (expressed as the log of the cfu per gram of tissue) for different organs at different doses.
[…] All mice terminated at 48 hours for culture of kidney, liver and spleen to determine organ viability counts.
Results: expressed as log cfu per gram of tissue
Experiment 1: S. aureus (1.5×10^7 cfu): EMRSA-15 (Table 5)
Experiment 2: S. aureus (9×10^6 cfu): clinical isolate EMRSA-15—low dose Aurograb (Table 6)

[3] = mice
Protocol: The pharmacokinetic (PK) characteristics of Aurograb have been studied in mice. A murine model was used because efficacy and dose ranging studies have been performed in this species as were the repeat dose toxicology studies. Mice were given a single high dose as an iv bolus and then examined in duplicate for blood levels and organ distribution. Urine samples were also analysed. Samples were analysed for functional activity, measured by ELISA (blood samples only) and drug concentration (SDS PAGE/immunoblots).

human blood = assay: Blood compatibility study (haemolysis); settings: human blood, 37° C., 1 hour; 0.1 mg/ml
Protocol: This study was carried out by Biochemical Pharmacology department at Inveresk Research, Scotland, in order to assess the suitability of Aurograb for intravenous administration.
Blood samples were taken from healthy human volunteers, transferred to tubes containing Aurograb, Aurograb vehicle, saponin or saline and incubated at 37° C. for 1 hour. After centrifugation, the amount of haemoglobin in the supernatant was then assessed to determine haemolysis.

[4] = CD-1 mice, 1.3×10^7 cfu EMRSA-15 iv, Aurograb 2 mg/kg iv 1 hour later, 48 h
[5] = Experiment 1, 1.5×10^7 cfu EMRSA-15, Aurograb 0.2 mg/kg single iv dose
[6] = Experiment 1, 1.5×10^7 cfu EMRSA-15, Aurograb 1 mg/kg single iv dose
[7] = Experiment 1, 1.5×10^7 cfu EMRSA-15, Aurograb 2 mg/kg single iv dose
[8] = Experiment 2, 9×10^6 cfu clinical isolate EMRSA-15, Aurograb 0.2 mg/kg
[9] = Experiment 2, doses as low as 0.2 mg

B1: Aurograb: human genetic recombinant antibody (scFv with histidine tag, SEQ ID NO: 2) binding GrfA, a staphylococcal ABC transporter protein (protein)
scFv: MAKVQLLQSATEVKKPGASVKVSCKAYGYTFTDYGITWVRQAPGQGLEWMGWISAYNGYTNYAQKFQDRITMTTDASTSTAYMELRSLRPDDTAVLYCARDREDASLLRDGHWGQGTLVTVSSGGGGSGGGGSGGGGSGGGGSETTLTQSPGTLSLSPGERATLSCRASQIVSSSYLAWYQQKPGQAPRLLIYGASSRATGIPDRFSGSGSGTDFTLTISKLEPEDFAVYYCQHYGSSSPWTSRPRDQSDIKRAAALEHHHHHH
modifications: histidine tag; human single chain (scFv) recombinant antibody
Which “Kidney Log cfu/g tissue” value (EMRSA-15 [1]; [4]) does the source give for B1 here?
The value was 7.20 ± 1.15 Log cfu/g tissue.

And the “Liver Log cfu/g tissue” value (EMRSA-15 [1]; [4])?
Its value is 3.63 ± 0.68 Log cfu/g tissue.

What about the “Spleen Log cfu/g tissue” value (EMRSA-15 [1]; [4]) of the same molecule?
The value was 3.79 ± 0.82 Log cfu/g tissue.

And the “Reduction in viable organisms found in all three organs” value (EMRSA-15 [1]; kidney, liver and spleen, Aurograb 2 mg/kg vs formulation buffer)?
The value was 10 fold.

And the “Kidney log cfu per gram of tissue” value (EMRSA-15 [2]; [5])?
The value was 8.5 ± 2.55 log cfu per gram of tissue.

And the “Liver log cfu per gram of tissue” value (EMRSA-15 [2]; [5])?
The value was 6.61 ± 3.03 log cfu per gram of tissue.

What about the “Spleen log cfu per gram of tissue” value (EMRSA-15 [2]; [5]) of the same molecule?
Its value is 5.69 ± 1.16 log cfu per gram of tissue.

And the “Kidney log cfu per gram of tissue” value (EMRSA-15 [2]; [6])?
Its value is 8.7 ± 2.6 log cfu per gram of tissue.

And the “Liver log cfu per gram of tissue” value (EMRSA-15 [2]; [6])?
Its value is 5.40 ± 1.38 log cfu per gram of tissue.

What about the “Spleen log cfu per gram of tissue” value (EMRSA-15 [2]; [6]) of the same molecule?
The value was 5.33 ± 1.21 log cfu per gram of tissue.

What about the “Kidney log cfu per gram of tissue” value (EMRSA-15 [2]; [7]) of the same molecule?
Its value is 7.62 ± 1.16 log cfu per gram of tissue.

And the “Liver log cfu per gram of tissue” value (EMRSA-15 [2]; [7])?
The value was 5.22 ± 1.39 log cfu per gram of tissue.

And the “Spleen log cfu per gram of tissue” value (EMRSA-15 [2]; [7])?
Its value is 5.10 ± 1.29 log cfu per gram of tissue.

And the “Reduction in kidney bacterial counts” value (EMRSA-15 [2]; highest dose (2.0 mg/kg))?
The value was 0.8 log.

And the “Reduction in kidney bacterial counts” value (EMRSA-15 [2]; lower doses)?
Its value is “no reduction”.

And the “Kidney log cfu per gram of tissue” value (EMRSA-15 [2]; [8])?
Its value is 7.14 ± 1.28 log cfu per gram of tissue.

What about the “Liver log cfu per gram of tissue” value (EMRSA-15 [2]; [8]) of the same molecule?
The value was 3.13 ± 0.44 log cfu per gram of tissue.

And the “Spleen log cfu per gram of tissue” value (EMRSA-15 [2]; [8])?
The value was 3.40 ± 0.64 log cfu per gram of tissue.

And the “Bacterial killing in the liver and spleen” value (EMRSA-15 [2]; [9])?
Its value is “evidence of bacterial killing”.

What about the “Reduction in viable staphylococci in the kidneys” value (EMRSA-15 [2]; [9]) of the same molecule?
Its value is “no reduction”.

And the “Drop in liver and spleen counts” value (EMRSA-15 [2]; single dose of 2.0 mg/kg in mice)?
The value was “approximately 2.0 log”.

What about the “Time by which all organs were cleared” value ([3]; lungs, brain, liver, spleen, heart, kidney and blood) of the same molecule?
Its value is ≤ 24 h.

And the Blood levels ([3]; single intravenous bolus injection 10 mg/kg)?
The Blood levels was “satisfactory blood levels”.

And the “Haemolysis classification (ASTM F756-93)” value (human blood)?
The value was “non-haemolytic”.
